The results in this text go back to US20150017230A1 (ACADEMIA SINICA, published 2015).

Positions count from the first letter of the chain named.

Test [1] has as its target T1, human epithelial cell adhesion molecule (EpCAM), endogenous in SAS and other cancer cells (human, UniProt P16422 24-314).
T1 construct: also called TACSTD1; epithelial specific antigen (ESA)
T1 sequence: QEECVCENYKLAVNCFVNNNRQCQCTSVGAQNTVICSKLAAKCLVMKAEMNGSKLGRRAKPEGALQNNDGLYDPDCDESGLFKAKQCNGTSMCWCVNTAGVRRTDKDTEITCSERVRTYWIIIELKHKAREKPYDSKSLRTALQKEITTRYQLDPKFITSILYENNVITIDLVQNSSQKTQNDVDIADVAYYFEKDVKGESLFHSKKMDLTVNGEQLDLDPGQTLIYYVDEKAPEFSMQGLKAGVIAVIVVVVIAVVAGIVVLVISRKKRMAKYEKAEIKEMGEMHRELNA
Kind of test: cellular ELISA on SAS cells, OD490nm. (An ELISA detects its analyte on a solid surface through an enzyme-linked reagent.)

Test [2] deals with T2, EpCAM antigen immobilized on CM5 sensor chip (human, UniProt P16422 24-265, limits assumed).
T2 sequence: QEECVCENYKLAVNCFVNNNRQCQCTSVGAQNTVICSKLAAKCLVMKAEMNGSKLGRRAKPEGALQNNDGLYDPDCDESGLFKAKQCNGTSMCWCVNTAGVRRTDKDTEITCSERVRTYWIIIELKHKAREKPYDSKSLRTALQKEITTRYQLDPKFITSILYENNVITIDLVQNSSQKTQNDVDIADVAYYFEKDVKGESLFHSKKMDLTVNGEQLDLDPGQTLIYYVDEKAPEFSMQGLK
The experiment in a line: SPR (BIAcore), EpCAM antigen immobilized on CM5 chip, mAb injected. The method, then: (§1) The affinity of murine and humanized antibodies was performed by surface plasmon resonance (BIAcore T100, Biacore, Inc). EpCAM antigen was immobilized on a Series S Sensor Chip CM5 (Biacore, Inc) and injected at a flow rate of 10 μl/min. The mAbs were diluted in HBS-EP⁺ buffer (Biacore, Inc) and injected at a flow rate of 50 μl/min for 1.5 min, and were allowed to dissociate over 5 min. […] The data were analyzed by the BIAevaluation software with a global fit 1:1 binding model.

In test [3] the target is T2, EpCAM antigen immobilized on CM5 sensor …. Kind of test: SPR (BIAcore T100), EpCAM antigen immobilized on CM5 chip, mAb injected, 1:1 global fit. The method, then: as §1
Background: Surface plasmon resonance follows binding to a sensor surface in real time, without labels.

B1: EpAb2-6 (antibody, V domains shown)
VH: EVQLVESGPELKKPGETVKISCKASGYTFTDYSMHWVKQAPGKGLKWMGWINTETGEPTFADDFKGRFAFSLETSARTTYLQINNLKNEDTATYFCARTAVYWGQGTSLTVSS
VL: DIQLTQSPSSLSASLGERVSLTCRASQEISVSLSWLQQKPDGTIKRLIYATSTLDSGVPKRFSGSRSGSDYSLTISSLESEDFADYYCLQYASYPWTFGGGTKLEIKR
notes: Mouse hybridoma monoclonal IgG; also called mEpAb2-6; murine EpAb2-6
The EC50 (read off the curve) is the midpoint of the concentration-response curve. By koff is commonly meant the rate constant with which the complex falls apart. What is called kon is a measure of how fast the partners come together. Lower therefore signals slow association. As usually defined, the Kd is the constant that tells how readily two partners part at equilibrium. Read a high Kd as a looser complex. As for B1, the concentration for a half-maximal effect (EC50 (read off the curve)) in test [1] is about 0.01 µg/mL. Further, in test [2], the koff was determined as 0.00014 s⁻¹ and the kon is 401000 M⁻¹ s⁻¹. This molecule also registered a Kd in test [3] of 349 pM.

B2: humanized EpAb2-6 (antibody, V domains shown)
VH: VKLQESGPELKKPGETVKISCKASGYTFTDYSMHWVKQAPGKGLKWMGWINTETGEPTYADDFKGRFAFSLETSASTAYLQINNLKNEDTATYFCARTAVYWGQGTTVTVSS
VL: B1 VL with L4M, K39E, A84V
notes: CDRs of EpAb2-6 grafted onto a human IgG1 backbone; also called hEpAb2-6
For the molecule B2, the concentration giving a half-maximal response (EC50 (read off the curve)) in test [1] was about 0.02 µg/mL. In test [2], this molecule had an off-rate constant (koff) of 0.000254 s⁻¹ and an association rate constant (kon) of 376000 M⁻¹ s⁻¹. The same molecule had a Kd in test [3] of 677 pM.

B3: EpAb4-1 (antibody, V domains shown)
VH: QIQLVQSGPELKKPGETVKISCKASGYTFTNYGMNWVKQAPGKGLKWMGWINTYTGEPTYGDDFKGRFAFSLETSASTAYLQINNLKNEDTATYFCARFGRSVDFWGQGTSVTVSS
VL: DIVMTQAAFSNPVTLGTSASISCRSSKSLLHSNGITYLYWYLQKPGQSPQLLIYHMSNLASGVPDRFSSSGSGTDFTLRISRVEAEDVGIYYCAQNLENPRTFGGGTKLEIK
As to B3, in test [2], the dissociation constant (Kd) is 1.23 pM, the koff worked out at 3.52e-07 s⁻¹ and the on-rate (kon) stood at 286000 M⁻¹ s⁻¹.
